{"source": "patent US20170226560", "test_system": "T1, peptide substrate SEQ ID NO: 1 Lys-Lys-Gly-Phe-Pro-Arg-Gly-Gly-Asp-Cys", "T1 sequence": "KKGFPRGGDC"}
{"substance": "trypsin", "values": [{"measurement": "limit of detection of trypsin (750 nM peptide, 60 min pre-exposure, 20 nm gold nanoparticles)", "value": "the limit of detection of the colloidal gold nanoparticle-based colorimetric assay developed in the present invention for sensing trypsin is about 20 pM of trypsin"}, {"measurement": "limit of detection of trypsin (750 nM peptide, 3 hours pre-exposure, 20 nm gold nanoparticles)", "value": "from 20 pM to approximately 2 to 10 pM"}, {"measurement": "limit of detection of trypsin (750 nM peptide, 3 hours pre-exposure, 30 nm gold nanoparticles)", "value": "further improved from about 2 to 10 pM to a range of from 500 fM to 2 pM"}, {"measurement": "ratio of the absorbance at 650 nm/absorbance at 520 nm (750 nM peptide, 60 min pre-exposure, trypsin up to 2 nM)", "value": "As the amount of trypsin is increased the absorbance band shifts toward what the gold nanoparticles show in the absence of any peptide and the ratio approaches a value of about 0.05"}, {"measurement": "time for complete hydrolytic cleavage (gold nanoparticle aggregation, ratio of absorbance at 650 nm to 520 nm; 1000 nM peptide, 200 pM trypsin, 20 C)", "value": "it took more than 60 min for complete hydrolytic cleavage of a solution of 1000 nM of the peptide substrate SEQ ID NO: 1 Lys-Lys-Gly-Phe-Pro-Arg-Gly-Gly-Asp-Cys by trypsin at a concentration of 200 pM"}]}
